Patent publication US20250304713A1, “COMBINATION IMMUNOTHERAPY COMPOSITIONS AND METHODS OF USE THEREOF” (THE PENN STATE RESEARCH FOUNDATION, priority 2022, published 2025)

Columns and labels:
9464D-GD2 cells = assay: Cell viability, CellTiter-Glo; assay type: cell-based, mouse; details: 0.1 μM tipifarnib; 24, 48, 72 h
Method: 9464D-GD2 cells were seeded in a white, opaque 96-well plate. The following day, cells were treated with increasing doses of tipifarnib, and cell viability was measured at 24, 48 and 72 hours post-treatment using the CellTiter-Glo® Luminescent Cell Viability Assay (Promega, G7573) according to manufacturer's instructions. Microplate luminescence was measured using a CLARIOstar (BMG Labtech) plate reader. All data were normalized to non-treated controls. 9464D cells or 9464D crRab27a cells were plated at a density of 5000 cells/well in a 96-well plate and monitored for confluence using the Incucyte S3 μLive Cell Imaging System (Sartorius). The percent cell confluence was quantified using Incucyte Basic Cell Analysis package (Sartorius).

[1] = system: tumor-infiltrating NK cells, T-cells and tumor-associated macrophages in 9464D-GD2 tumors; assay: Flow cytometry of tumor-infiltrating immune cells (NK cells, T-cells, TAMs); assay type: in vivo, mouse
Method: (§1) Murine tumors and spleens were harvested at the experimental endpoint and mechanically disassociated. Tumors were further digested with tumor digestion buffer ([…] Collagenase Type I (Thermo Fisher, 17018029) and 2000 Units/ml DNase (Sigma-Aldrich, DN25-100MG) in HBSS buffer at room temperature for 1 hour. Dissociated tumor cells and spleen cells were passed through a 70 μm cell strainer (Falcon BD, 352350), pelleted, and washed once with PBS supplemented with 1% FBS. Red blood cells were lysed with RBC lysis buffer (0.0155 M NH4Cl, 1.2 mM NaHCO3, 0.01 mM Na2EDTA, pH 7.4 in distilled water) for 3 minutes on ice and neutralized with PBS supplemented with 10% FBS. Cells were centrifuged and resuspended in FACS buffer to obtain single cell suspensions.
(§2) All animal studies were performed according to guidelines established by the Institutional Animal Care and Use Committee (IACUC) at the Penn State College of Medicine (Hershey, PA). An immunocompetent mouse model of neuroblastoma was generated by subcutaneously injecting 1×10^6 9464D-GD2 cells in a 50:50 mixture of DMEM and Matrigel (Corning, 354234) into C57BL/6J mice (8- to 10-week-old, JAX 000664) with male and female mice represented at an equal ratio. One week following tumor cell inoculation, mice were randomized into treatment groups. Where indicated, mice were treated twice-weekly by tail-vein injection with PBS (100 μL), dinutuximab ([…] in 100 μL PBS), purified sEVs from 9464D-GD2 cells ([…] in 100 μL PBS), or the combination of dinutuximab and sEVs. Where indicated, tipifarnib (25 mg/kg) or an equivalent volume of vehicle was administered twice daily by oral gavage. Primary tumor growth was monitored by measuring tumor volume using calipers (volume=π(length*width^2)/6). At the experimental endpoint, mice were euthanized, and tumor, blood, spleen and bone marrow were harvested for ex vivo analysis. Endpoint tumor volume was calculated by measuring tumors using calipers (volume=π(length*width*height)/6).
For cell surface staining, approximately 1×10^6 cells were stained with pre-mixed antibody cocktail panels (Table 1) in 100 μL FACS buffer (1% FBS, 0.2% NaN3 in PBS) for 30 minutes on ice. Cells were washed twice with FACS buffer and fixed with 2% paraformaldehyde (Fisher Scientific, 50-980-487) for 15 minutes. Fixed cells were washed once with PBS and resuspended in 0.5 mL FACS buffer for flow cytometric analysis using a LSR II or Symphony flow cytometer (BD Biosciences). Compensation was performed using UltraComp eBeads™ compensation beads (Invitrogen). FlowJo™ v10 (FlowJo, LLC) software was used for data analysis.

9464D-GD2 tumors = assay: 9464D-GD2 syngeneic subcutaneous neuroblastoma model, tumor growth, volume and weight; assay type: in vivo, mouse
Method: as §2

[2] = system: NK cells (NK1.1+CD3-) in blood; assay: Flow cytometry of blood NK cells of tumor-bearing mice; assay type: in vivo, mouse
Method: as §2, with “(volume=π(length*width*height)/6). […]” for “(volume=π(length*width*height)/6).”

splenic NK cells = assay: Flow cytometry of splenic NK cell subpopulations (maturation); assay type: in vivo, mouse
Method: as §1
as §2, with “(volume=π(length*width*height)/6). […]” for “(volume=π(length*width*height)/6).”

[3] = day 24, treatment as FIG. 4D (FIG. 5A)
[4] = day 30, treatment as FIG. 1D (FIG. 3C)

Molecule | cytotoxicity (cell viability) (9464D-GD2 cells) | TAM population (CD11b+F4/80+) [1, 3] | tumor-infiltrating NK cells (NK1.1+CD3-) [1, 3] | tumor-infiltrating T-cells (CD3+NK1.1-) [1, 3] | tumor-associated macrophage (TAM) population (CD11b+F4/80+) ([1]; day 30, treatment as FIG. 1D (FIG. 2E bottom)) | tumor-infiltrating NK cell population (NK1.1+CD3-) ([1]; day 30, treatment as FIG. 1D (FIG. 2E top)) | tumor growth (tumor volume over time) (9464D-GD2 tumors; dinutuximab 1.25 mg/kg and/or 9464D-GD2 sEVs 20 μg, tail vein twice weekly from one week post-inoculation, to day 30, vs PBS (FIG. 1E)) | tumor growth and weight, sEV rescue experiment (9464D-GD2 tumors; dinutuximab and/or tipifarnib with or without sEVs, day 24 (FIG. 6B-D)) | level of circulating NK cells (mobilization) ([2]; day 24, treatment as FIG. 4D (FIG. 5B)) | percentage of serum (blood) NK cells, NK cell mobilization ([2]; day 30, treatment as FIG. 1D (FIG. 2F)) | percentage of mature NK cells in the spleen (CD27-CD11b+) (splenic NK cells; day 24, treatment as FIG. 4D, vs control or tipifarnib alone (FIG. 5C)) | percentage of mature splenic NK cells (CD27-CD11b+) (splenic NK cells; [4]) | percentage of splenic NK cells with immature phenotype (CD27+CD11b-) (splenic NK cells; [4])
Cn1cncc1[C@@](N)(c1ccc(Cl)cc1)c1ccc2c(c1)c(-c1cccc(Cl)c1)cc(=O)n2C [tipifarnib] | absence of cytotoxicity |  |  |  |  |  |  |  |  |  |  |  | 
dinutuximab (antibody, chains of the INN, looked up, V domains shown, chimeric monoclonal antibody against the disialoganglioside GD2) VH: EVQLLQSGPELEKPGASVMISCKASGSSFTGYNMNWVRQNIGKSLEWIGAIDPYYGGTSYNQKFKGRATLTVDKSSSTAYMHLKSLTSEDSAVYYCVSGMEYWGQGTSVTVSS VL: EIVMTQSPATLSVSPGERATLSCRSSQSLVHRNGNTYLHWYLQKPGQSPKLLIHKVSNRFSGVPDRFSGSGSGTDFTLKISRVEAEDLGVYFCSQSTHVPPLTFGAGTKLELK |  | decreasing TAMs | enhancing the mobilization of NK cells and percentages of tumor-infiltrating NK cells and T-cells | enhancing the mobilization of NK cells and percentages of tumor-infiltrating NK cells and T-cells | significantly decreased the TAM population | significantly increased the tumor-infiltrating NK cell population | dramatically suppressed tumor growth | mild anti-tumor activity alone | enhancing the mobilization of NK cells | significant increase in the percentage of serum NK cells | significantly increased the percentage of mature NK cells in the spleen | increased the percentage of mature splenic NK cells | significantly decreased the percentage of splenic NK cells with an immature phenotype
